Source: patent US20230384326A1 (CANON MEDICAL SYSTEMS, published 2023)

Legend:
[1] = biological target: T1, mCRP (31-60) peptide (human); test: solid phase peptide ELISA (part 2)
T1 peptide: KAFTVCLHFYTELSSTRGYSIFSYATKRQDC

[2] = biological target: T2, mCRP (121-150) peptide (human); test: solid phase peptide ELISA (part 2)
T2 peptide: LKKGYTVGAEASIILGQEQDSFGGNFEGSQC

[3] = biological target: T3, mCRP (151-180) peptide (human); test: solid phase peptide ELISA (part 2)
T3 peptide: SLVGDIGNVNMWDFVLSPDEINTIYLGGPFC

[4] = biological target: T4, mCRP (61-90) peptide (human); test: solid phase peptide ELISA (part 2)
T4 peptide: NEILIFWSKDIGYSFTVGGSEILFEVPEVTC

[5] = biological target: T5, mCRP (181-206) peptide (human); test: solid phase peptide ELISA (part 2)
T5 peptide: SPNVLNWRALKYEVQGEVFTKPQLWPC

[6] = biological target: T6, mCRP (209) peptide (human); test: solid phase peptide ELISA, antibody 1 ug/mL
T6 peptide: KYEVQGEVFTKPQLWPC
Experimental: (§1) Epitope analysis was performed by the following procedure. [0200] (a) Peptides were immobilized on a plate by standing at 50 ng/well (50 μL/well) for 16 hours at 4° C. […] (b) Solid phase peptides were washed twice with Dulbecco's PBS (D-PBS) (200 μL/well). […] (c) Blocking was performed by adding 200 μL of D-PBS containing 0.1% BSA and 0.05% NaN₃ to each well and leaving it at 4° C. overnight. […] (d) Each well was washed twice with the washing buffer. [0204] (e) The antibody was diluted to 1 μg/mL with the dilution buffer and the diluted solution was added to each well (50 μL/well) and left at 37° C. for 30 minutes. […] (f) Each well was washed four or more times with the washing buffer. […] (g) Anti-mouse IgG (γ-specific)-HRP, a labeled antibody, was added to each well (50 μL/well) and left at 37° C. for 30 minutes. [0207] (h) Each well was washed four or more times with the washing buffer. […] (i) A chromogenic reaction was started by adding a substrate solution (400 μg/mL) to each well (100 μL/well), and the reaction was allowed to proceed for 15 minutes at room temperature in the dark. [0209] (j) After 15 minutes, the reaction was stopped by addition of 1 mol/L sulfuric acid (100 μL/well), and absorbance (490 nm) was measured.
(§2) In the above (e), the same result was obtained even when the antibody concentration added to each well was changed to 5 μg/mL. […] Accordingly, it is believed that there are not only one kind of epitope but also a plurality of kinds of epitopes of human denatured CRP-specific monoclonal antibodies.

[7] = biological target: T7, mCRP (189) peptide (human); test: solid phase peptide ELISA, antibody 1 ug/mL
T7 peptide: INTIYLGGPFC
Experimental: as §1, §2

[8] = biological target: T8, mCRP (199) peptide (human); test: solid phase peptide ELISA, antibody 1 ug/mL
T8 peptide: SPNVLNWRALC
Experimental: as §1, §2

[9] = biological target: T9, mCRP (59) peptide (human); test: solid phase peptide ELISA, antibody 1 ug/mL
T9 peptide: TELSSTRGYSC
Experimental: as §1, §2

[10] = biological target: T10, mCRP (119) peptide (human); test: solid phase peptide ELISA, antibody 1 ug/mL
T10 peptide: ESASGIVEFWC
Experimental: as §1, §2

[11] = biological target: T11, mCRP (179) peptide (human); test: solid phase peptide ELISA, antibody 1 ug/mL
T11 peptide: MWDFVLSPDEC
Experimental: as §1, §2

[12] = biological target: T12, mCRP (159) peptide (human); test: solid phase peptide ELISA, antibody 1 ug/mL
T12 peptide: SFGGNFEGSQC
Experimental: as §1, §2

[13] = biological target: T13, mCRP (149) peptide (human); test: solid phase peptide ELISA, antibody 1 ug/mL
T13 peptide: ASIILGQEQDC
Experimental: as §1, §2

[14] = biological target: T14, mCRP (29) peptide (human); test: solid phase peptide ELISA, antibody 1 ug/mL
T14 peptide: FPKESDTSYVC
Experimental: as §1, §2

[15] = biological target: T15, mCRP (39) peptide (human); test: solid phase peptide ELISA, antibody 1 ug/mL
T15 peptide: SLKAPLTKPLC
Experimental: as §1, §2

[16] = biological target: T16, mCRP (19) peptide (human); test: solid phase peptide ELISA, antibody 1 ug/mL
T16 peptide: QTDMSRKAFVC
Experimental: as §1, §2

[17] = biological target: T17, mCRP (129) peptide (human); test: solid phase peptide ELISA, antibody 1 ug/mL
T17 peptide: VDGKPRVRKSC
Experimental: as §1, §2

[18] = biological target: T18, mCRP (169) peptide (human); test: solid phase peptide ELISA, antibody 1 ug/mL
T18 peptide: SLVGDIGNVNC
Experimental: as §1, §2

[19] = biological target: T19, mCRP (109) peptide (human); test: solid phase peptide ELISA, antibody 1 ug/mL
T19 peptide: VAPVHICTSWC
Experimental: as §1, §2

[20] = biological target: T20, mCRP (79) peptide (human); test: solid phase peptide ELISA, antibody 1 ug/mL
T20 peptide: NEILIFWSKDC
Experimental: as §1, §2

[21] = biological target: T21, mCRP (99) peptide (human); test: solid phase peptide ELISA, antibody 1 ug/mL
T21 peptide: EILFEVPEVTC
Experimental: as §1, §2

[22] = biological target: T22, mCRP (139) peptide (human); test: solid phase peptide ELISA, antibody 1 ug/mL
T22 peptide: LKKGYTVGAEC
Experimental: as §1, §2

[23] = biological target: T23, mCRP (49) peptide (human); test: solid phase peptide ELISA, antibody 1 ug/mL
T23 peptide: KAFTVCLHFYC
Experimental: as §1, §2

[24] = biological target: T24, mCRP (89) peptide (human); test: solid phase peptide ELISA, antibody 1 ug/mL
T24 peptide: IGYSFTVGGSC
Experimental: as §1, §2

[25] = biological target: T25, mCRP (69) peptide (human); test: solid phase peptide ELISA, antibody 1 ug/mL
T25 peptide: IFSYATKRQDC
Experimental: as §1, §2

[26] = biological target: T21, mCRP (99) peptide; test: solid phase peptide ELISA
Experimental: as §1
In the above (e), the same result was obtained even when the antibody concentration added to each well was changed to 5 μg/mL. […]

B1: human denatured CRP-specific antibody produced from hybridoma mCRP-3C (antibody, mouse IgG2b, V domains shown)
VH: QVQLQQSGAELVRPGASVKLSCKALDYTFTDYEMHWVKQTPVHGLEWIGAIHPGRGGTAYNQKFKGKATLTADKSSSTAYMELSSLTSEDSGVYYCTSYHGGYWGQGTTLTVSS
VL: DVVMTQTPLSLPVSLGDQASISCRSSQSLVHSNENTYLLWYLQKPGQSPKLLIYKVSNRFSGVPDRFSGSGSGTDFTLKISRVEAEDLGVYFCSQTTHVPWTFGGGTKLEIKR
notes: Mouse IgG2b, kappa; also called 3C antibody
[1]
  Absorbance (490 nm): 0.03 A490
[2]
  Absorbance (490 nm): 0.017 A490
[3]
  Absorbance (490 nm): 0.108 A490
[4]
  Absorbance (490 nm): 1.98 A490
[5]
  Absorbance (490 nm): 0.006 A490
[6]
  Absorbance (490 nm): 0 A490
[7]
  Absorbance (490 nm): 0.007 A490
[8]
  Absorbance (490 nm): 0.006 A490
[9]
  Absorbance (490 nm): 0.001 A490
[10]
  Absorbance (490 nm): 0.005 A490
[11]
  Absorbance (490 nm): 0.003 A490
[12]
  Absorbance (490 nm): 0.002 A490
[13]
  Absorbance (490 nm): 0.001 A490
[14]
  Absorbance (490 nm): -0.001 A490
[15]
  Absorbance (490 nm): 0.001 A490
[16]
  Absorbance (490 nm): 0.004 A490
[17]
  Absorbance (490 nm): 0.002 A490
[18]
  Absorbance (490 nm): 0.001 A490
[19]
  Absorbance (490 nm): -0.001 A490
[20]
  Absorbance (490 nm): 0 A490
[21]
  Absorbance (490 nm): 1.58 A490
[22]
  Absorbance (490 nm): 0.002 A490
[23]
  Absorbance (490 nm): 0 A490
[24]
  Absorbance (490 nm): 0 A490
[25]
  Absorbance (490 nm): 0.002 A490

B2: human denatured CRP-specific antibody produced from hybridoma mCRP-12C (antibody, mouse IgG1, V domains shown)
VH: EVQLQQSGAELVKPGASVKLSCTASGFNIKDYYIHWVKQRTDQGLEWIGRIDPEDDETKYAPKFQGKATIITDTSSNTAYLHLSSLTSADTAVYYCASRIYYYDIKGLFDYWGQGTTLTVSS
VL: DIVMTQAPSSLTVTAGEKVTMTCKSSQSLLNSGNQKNYLTWSQQKPGQPPKLLIYWASTRESGVPDRFTGSGSGTDFTLTISSVQAEDLAVYYCQNDYNYPITFGAGTKLELKR
notes: Mouse IgG1, kappa; also called 12C antibody
[26]
  binding result: no binding

B3: human denatured CRP-specific antibody produced from hybridoma mCRP-18A (antibody, mouse IgG2a)
heavy: EVQLQQSGAEFVKPGTSVKLSCTASGFNIKDYYIHWVKQRTEQGLEWIGRIDPEDGETKYAPKFQGKATITADASSNTAYLQLSSLTSEDTAVYYCVSRMYYYGSQGLFDFWGQGTTLTVSSAKTTAPSVYPLAPVCGGTTGSSVTLGCLVKGYFPEPVTLTWNSGSLSSGVHTFPALLQSGLYTLSSSVTVTSNTWPSQTITCNVAHPASSTKVDKKIEPRVPITQNPCPPLKECPPCAAPDLLGGPSVFIFPPKIKDVLMISLSPMVTCVVVDVSEDDPDVQISWFVNNVEVHTAQTQTHREDYNSTLRVVSALPIQHQDWMSGKEFKCKVNNRALPSPIEKTISKPRGPVRAPQVYVLPPPAEEMTKKEFSLTCMITGFLPAEIAVDWTSNGRTEQNYKNTATVLDSDGSYFMYSKLRVQKSTWERGSLFACSVVHEGLHNHLTTKTISHSPGK
light: DIVMTQSPSSLTVTAGEKVTMGCKSSQSLLNSANQKNYLTWYRQKPGQPPKLLIYWASTRESGVPDRFTGSGSGTDFTLTISSVQAEDLAVYYCQNDYNYPLTCGAGTKLDLKRADAAPTVSIFPPSSEQLTSGGASVVCFLNNFYPKDINVKWKIDGSERQNGVLNSWTDQDSKDSTYSMSSTLTLTKDEYERHNSYTCEATHKTSTSPIVKSFNRNEC
notes: Mouse IgG2a, kappa; also called 18A antibody
[26]
  binding result: no binding
